From US5998188

B1: MKP-1, full length, expressed from CMV-MKP-1 in PC12 cells (enzyme)
chain: MVMEVGILDAGGLRALLREGAAQCLLLDCRSFFAFNAGHIAGSVNVRFSTIVRRRAKGAMGLEHIVPNAELRGRLLAGAYHAVVLLDERSASLDGAKRDGTLALAAGALCREARSTQVFFLQGGYEAFSASCPELCSKQSTPTGLSLPLSTSVPDSAESGCSSCSTPLYDQGGPVEILSFLYLGSAYHASRKDMLDALGITALINVSANCPNHFEGHYQYKSIPVEDNHKADISSWFNEAIDFIDSIKDAGGRVFVHCQAGISRSATICLAYLMRTNRVKLDEAFEFVKQRRSIISPNFSFMGQLLQFESQVLAPHCSAEAGSPAMAVLDRGTSTTTVFNFPVSIPVHPTNSALNYLKSPITTSPSC

Target: MAP kinase (ERKs) of PC12 cells

| Molecule | Gal4-Elk-1 dependent luciferase activity induced by Raf BxB in PC12 cells (% of maximal levels) | Gal4-Elk-1 dependent luciferase activity induced by Raf BxB in PC12 cells (% of maximally stimulated levels) |
| --- | --- | --- |
| MKP-2 (rat mitogen-activated protein kinase phosphatase-2), full length, expressed from CMV-MKP-2 in PC12 cells | 90 | – |
| B1 | – | > 60 |
